According to publication PMC3743801:

The substances below were run against C-terminal vinculin homology domain of α-catenin (α-catenin635–906) (UniProt P35221) (assay: fluorescence polarisation; fluorescence anisotropy of FITC-labelled EspB fragments (fluorescein at the N-terminus) and of EspB with α-catenin635–906; KD by nonlinear curve fitting; buffer and temperature not stated).
UniProt P35221, sequence (P35221 635-906): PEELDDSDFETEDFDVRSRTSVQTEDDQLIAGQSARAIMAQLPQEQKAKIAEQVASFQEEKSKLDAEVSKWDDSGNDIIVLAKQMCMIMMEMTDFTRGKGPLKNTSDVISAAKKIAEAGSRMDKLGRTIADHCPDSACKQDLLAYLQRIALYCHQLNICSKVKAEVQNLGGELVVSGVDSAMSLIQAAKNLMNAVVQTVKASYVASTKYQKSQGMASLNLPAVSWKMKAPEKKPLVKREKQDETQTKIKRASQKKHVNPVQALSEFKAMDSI

| Substance | Kd [µM] |
| --- | --- |
| EspB51–70 (peptide) | 12 |
| EspB from enterohaemorrhagic E. coli (EHEC) (natural protein) | 2.9 |
| EspB41–70 (peptide) | 2.5 |
| EspB41–60 (peptide) | 23 |
